Assay [1] has as its target catalytic domain of human MMP-9 (cdMMP-9) (human) (UniProt P14780). Put plainly: biolayer interferometry, biotinylated cdMMP-9 on streptavidin biosensors, Fab in solution.
Assay [2] has the same target. Kind of assay: inhibition of cdMMP-9 proteolytic activity, FRET peptide substrate.
The target is the same in assay [3]. Kind of assay: biolayer interferometry, biotinylated protease on streptavidin sensor, Fab in solution. (BLI is a label-free optical method that tracks binding on a fibre tip over time.)
Assay [4] shares this target.
Assay [5] shares this target. Put plainly: FRET peptide substrate inhibition assay, K1=IC50/(S/Km+1).
Assay [6] shares this target. Put plainly: cell-based or functional assay.
Assay [7] shares this target. Put plainly: biolayer interferometry, IgG on protein A sensor, protease in solution.

Numbering of substitutions follows the chain as printed.

As a reminder, the koff is the first-order rate constant of dissociation. Low readings indicate a long-lived complex, high ones a short-lived complex. As a reminder, the kon is the second-order rate constant of association. A high value points to fast association. A word on the IC50: it is the concentration that gives 50% inhibition. A higher IC50 goes with weaker potency. Usually Kd stands for the free concentration of one partner at which half of the binding sites on the other are occupied at equilibrium, for simple one-to-one binding.

Chain of UniProt P14780 (P14780 other isoform, or with tags, fused parts or gaps limits assumed): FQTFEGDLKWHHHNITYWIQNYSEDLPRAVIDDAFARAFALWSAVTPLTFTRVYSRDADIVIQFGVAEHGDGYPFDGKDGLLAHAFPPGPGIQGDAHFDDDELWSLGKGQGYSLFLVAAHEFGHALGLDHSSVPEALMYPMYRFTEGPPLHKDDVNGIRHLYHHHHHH

B1: anti-MMP9 Fab L13 (Fab, V domains shown)
VH: EVQLVESGGGLVQPGGSLRLSCAASGFNISSSYIHWVRQAPGKGLEWVASISSSSGYTSYADSVKGRFTISADTSKNTAYLQMNSLRAEDTAVYYCARKYMVFGTRMGWVEHTDFAGQGYYAMDYWGQGTLVTVSS
VL: DIQMTQSPSSLSASVGDRVTITCRASQSVSSAVAWYQQKPGKAPKLLIYSASSLYSGVPSRFSGSRSGTDFTLTISSLQPEDFATYYCQQYAALITFGQGTKVEIKR
Turning to B1, in assay [1], the dissociation rate constant (koff) was 0.0044 s⁻¹ and the association rate constant (kon) was found to be 83000 M⁻¹ s⁻¹. Also, the IC50 in assay [2] is 260 nM. The equilibrium dissociation constant (Kd) in assay [3] came out at 120 nM. Also, in assay [4], the Km of cdMMP-9 on FRET peptide substrate at 63 nM Fab L13 (without Fab: 1.3) stood at 3.3 µM, the Km of cdMMP-9 on FRET peptide substrate at 125 nM Fab L13 (without Fab: 1.3) was 4.6 µM, the Km of cdMMP-9 on FRET peptide substrate at 250 nM Fab L13 (without Fab: 1.3) was determined as 5.1 µM and the Vmax of cdMMP-9 on FRET peptide substrate at 63 nM Fab L13 (without Fab: 1.3) was 0.7 ΔRFU/s. Besides, in assay [4], the Vmax of cdMMP-9 on FRET peptide substrate at 125 nM Fab L13 (without Fab: 1.3) is 0.7 ΔRFU/s and the Vmax of cdMMP-9 on FRET peptide substrate at 250 nM Fab L13 (without Fab: 1.3) is 0.6 ΔRFU/s. This molecule also registered a Ki in assay [5] of 150 nM. In addition, in assay [6], the degradation of type I collagen by cdMMP-9 (SDS-PAGE) is 4%.

B2: anti-MMP9 IgG L13 (antibody, V domains shown)
VH: B1 VH
VL: B1 VL
B2 displayed a Kd in assay [7] of 53 nM. The IC50 in assay [2] came out at 200 nM. The Ki in assay [5] was found to be 110 nM.

B3: anti-MMP9 Fab H3 (Fab, V domains shown)
VH: EVQLVESGGGLVQPGGSLRLSCAASGFNIYSSSMHWVRQAPGKGLEWVAYIYSSYGYTYYADSVKGRFTISADTSKNTAYLQMNSLRAEDTAVYYCARRFEPGLLKRNKRWISYTLCEAGYGMDYWGQGTLVTVSS
VL: B1 VL with Y91A, A92S, A93H
In assay [1], B3 registered a koff of 0.0048 s⁻¹ and a kon of 49000 M⁻¹ s⁻¹. Further, the Kd in assay [3] came to 98 nM. This molecule displayed a Ki in assay [5] of 66 nM.

B4: anti-MMP9 IgG H3 (antibody, V domains shown)
VH: B3 VH
VL: B1 VL with Y91A, A92S, A93H
Consider B4, for which the Kd in assay [7] came to 71 nM. The molecule further showed an IC50 in assay [2] of 92 nM. Moreover, the Ki in assay [5] stood at 51 nM.

B5: anti-MMP9 Fab H25 (Fab, V domains shown)
VH: EVQLVESGGGLVQPGGSLRLSCAASGFNIYSSSMHWVRQAPGKGLEWVASIYSYYGYTYYADSVKGRFTISADTSKNTAYLQMNSLRAEDTAVYYCARCKLYTSYMIPVGSDSVNRCMSSYGMDYWGQGTLVTVSS
VL: DIQMTQSPSSLSASVGDRVTITCRASQSVSSAVAWYQQKPGKAPKLLIYSASSLYSGVPSRFSGSRSGTDFTLTISSLQPEDFATYYCQQGGGASLITFGQGTKVEIKR
B5: in assay [1], the koff is 0.031 s⁻¹ and the kon came to 69000 M⁻¹ s⁻¹. In assay [2], this molecule returned an IC50 of 520 nM. Moreover, the Kd in assay [3] amounted to 450 nM. Also, the Ki in assay [5] is 290 nM.

Source of the values: patent US20230074615A1.
